First the molecules themselves.
B1: CE115HA000 S62D one-arm antibody (antibody, human IgG1, kappa, L234A L235A, N297A, name in Kabat numbering)
heavy: QVQLVESGGGVVQPGRSLRLSCAASGFTFSNAWMHWVRQAPGKGLEWVAQIKAKSNNYATYYAEDVKGRFTISRDDSKNSLYLQMNSLKTEDTAVYYCRYVHYGAYYGVDAWGQGTTVTVSSASTKGPSVFPLAPSSKSTSGGTAALGCLVKDYFPEPVTVSWNSGALTSGVHTFPAVLQSSGLYSLSSVVTVPSSSLGTQTYICNVNHKPSNTKVDKKVEPKSCDKTHTCPPCPAPEAAGGPSVFLFPPKPKDTLMISRTPEVTCVVVDVSHEDPEVKFNWYVDGVEVHNAKTKPREEQYASTYRVVSVLTVLHQDWLNGKEYKCKVSNKALPAPIEKTISKAKGQPREPQVYTLPPSRCELTKNQVSLSCAVKGFYPSDIAVEWESNGQPENNYKTTPPVLDSDGSFFLVSKLTVDKSRWQQGNVFSCSVMHEALHNHYTQKSLSLSPDYKDDDDK
chain: EPKSSDKTHTCPPCPAPELLGGPSVFLFPPKPKDTLMISRTPEVTCVVVDVSHEDPEVKFNWYVDGVEVHNAKTKPREEQYNSTYRVVSVLTVLHQDWLNGKEYKCKVSNKALPAPIEKTISKAKGQPREPQVCTLPPSRDELTKNQVSLWCLVKGFYPSDIAVEWESNGQPENNYKTTPPVLDSDGSFFLYSKLTVDKSRWQQGNVFSCSVMHEALHNRYTQKSLSLSP
light: DIVMTQSPLSLPVTPGEPASISCRSSQSLVHSNRNTYLHWYQQKPGQAPRLLIYKVSNRFSGVPDRFSGSGSGTDFTLKISRVEAEDVGVYYCGQGTQVPYTFGQGTKLEIKRTVAAPSVFIFPPSDEQLKSGTASVVCLLNNFYPREAKVQWKVDNALQSGNSQESVTEQDSKDSTYSLSSTLTLSKADYEKHKVYACEVTHQGLSSPVTKSFNRGEC
notes: one-arm antibody
B2: CE115HA000 S74A one-arm antibody (antibody, human IgG1, kappa, L234A L235A, N297A, name in Kabat numbering)
heavy: QVQLVESGGGVVQPGRSLRLSCAASGFTFSNAWMHWVRQAPGKGLEWVAQIKAKSNNYATYYAESVKGRFTISRDDAKNSLYLQMNSLKTEDTAVYYCRYVHYGAYYGVDAWGQGTTVTVSSASTKGPSVFPLAPSSKSTSGGTAALGCLVKDYFPEPVTVSWNSGALTSGVHTFPAVLQSSGLYSLSSVVTVPSSSLGTQTYICNVNHKPSNTKVDKKVEPKSCDKTHTCPPCPAPEAAGGPSVFLFPPKPKDTLMISRTPEVTCVVVDVSHEDPEVKFNWYVDGVEVHNAKTKPREEQYASTYRVVSVLTVLHQDWLNGKEYKCKVSNKALPAPIEKTISKAKGQPREPQVYTLPPSRCELTKNQVSLSCAVKGFYPSDIAVEWESNGQPENNYKTTPPVLDSDGSFFLVSKLTVDKSRWQQGNVFSCSVMHEALHNHYTQKSLSLSPDYKDDDDK
chain: EPKSSDKTHTCPPCPAPELLGGPSVFLFPPKPKDTLMISRTPEVTCVVVDVSHEDPEVKFNWYVDGVEVHNAKTKPREEQYNSTYRVVSVLTVLHQDWLNGKEYKCKVSNKALPAPIEKTISKAKGQPREPQVCTLPPSRDELTKNQVSLWCLVKGFYPSDIAVEWESNGQPENNYKTTPPVLDSDGSFFLYSKLTVDKSRWQQGNVFSCSVMHEALHNRYTQKSLSLSP
light: DIVMTQSPLSLPVTPGEPASISCRSSQSLVHSNRNTYLHWYQQKPGQAPRLLIYKVSNRFSGVPDRFSGSGSGTDFTLKISRVEAEDVGVYYCGQGTQVPYTFGQGTKLEIKRTVAAPSVFIFPPSDEQLKSGTASVVCLLNNFYPREAKVQWKVDNALQSGNSQESVTEQDSKDSTYSLSSTLTLSKADYEKHKVYACEVTHQGLSSPVTKSFNRGEC
notes: one-arm antibody
B3: CE115HA000 S62K one-arm antibody (antibody, human IgG1, kappa, L234A L235A, N297A, name in Kabat numbering)
heavy: QVQLVESGGGVVQPGRSLRLSCAASGFTFSNAWMHWVRQAPGKGLEWVAQIKAKSNNYATYYAEKVKGRFTISRDDSKNSLYLQMNSLKTEDTAVYYCRYVHYGAYYGVDAWGQGTTVTVSSASTKGPSVFPLAPSSKSTSGGTAALGCLVKDYFPEPVTVSWNSGALTSGVHTFPAVLQSSGLYSLSSVVTVPSSSLGTQTYICNVNHKPSNTKVDKKVEPKSCDKTHTCPPCPAPEAAGGPSVFLFPPKPKDTLMISRTPEVTCVVVDVSHEDPEVKFNWYVDGVEVHNAKTKPREEQYASTYRVVSVLTVLHQDWLNGKEYKCKVSNKALPAPIEKTISKAKGQPREPQVYTLPPSRCELTKNQVSLSCAVKGFYPSDIAVEWESNGQPENNYKTTPPVLDSDGSFFLVSKLTVDKSRWQQGNVFSCSVMHEALHNHYTQKSLSLSPDYKDDDDK
chain: EPKSSDKTHTCPPCPAPELLGGPSVFLFPPKPKDTLMISRTPEVTCVVVDVSHEDPEVKFNWYVDGVEVHNAKTKPREEQYNSTYRVVSVLTVLHQDWLNGKEYKCKVSNKALPAPIEKTISKAKGQPREPQVCTLPPSRDELTKNQVSLWCLVKGFYPSDIAVEWESNGQPENNYKTTPPVLDSDGSFFLYSKLTVDKSRWQQGNVFSCSVMHEALHNRYTQKSLSLSP
light: DIVMTQSPLSLPVTPGEPASISCRSSQSLVHSNRNTYLHWYQQKPGQAPRLLIYKVSNRFSGVPDRFSGSGSGTDFTLKISRVEAEDVGVYYCGQGTQVPYTFGQGTKLEIKRTVAAPSVFIFPPSDEQLKSGTASVVCLLNNFYPREAKVQWKVDNALQSGNSQESVTEQDSKDSTYSLSSTLTLSKADYEKHKVYACEVTHQGLSSPVTKSFNRGEC
notes: one-arm antibody
B4: CE115HA000 S62E one-arm antibody (antibody, human IgG1, kappa, L234A L235A, N297A, name in Kabat numbering)
heavy: QVQLVESGGGVVQPGRSLRLSCAASGFTFSNAWMHWVRQAPGKGLEWVAQIKAKSNNYATYYAEEVKGRFTISRDDSKNSLYLQMNSLKTEDTAVYYCRYVHYGAYYGVDAWGQGTTVTVSSASTKGPSVFPLAPSSKSTSGGTAALGCLVKDYFPEPVTVSWNSGALTSGVHTFPAVLQSSGLYSLSSVVTVPSSSLGTQTYICNVNHKPSNTKVDKKVEPKSCDKTHTCPPCPAPEAAGGPSVFLFPPKPKDTLMISRTPEVTCVVVDVSHEDPEVKFNWYVDGVEVHNAKTKPREEQYASTYRVVSVLTVLHQDWLNGKEYKCKVSNKALPAPIEKTISKAKGQPREPQVYTLPPSRCELTKNQVSLSCAVKGFYPSDIAVEWESNGQPENNYKTTPPVLDSDGSFFLVSKLTVDKSRWQQGNVFSCSVMHEALHNHYTQKSLSLSPDYKDDDDK
chain: EPKSSDKTHTCPPCPAPELLGGPSVFLFPPKPKDTLMISRTPEVTCVVVDVSHEDPEVKFNWYVDGVEVHNAKTKPREEQYNSTYRVVSVLTVLHQDWLNGKEYKCKVSNKALPAPIEKTISKAKGQPREPQVCTLPPSRDELTKNQVSLWCLVKGFYPSDIAVEWESNGQPENNYKTTPPVLDSDGSFFLYSKLTVDKSRWQQGNVFSCSVMHEALHNRYTQKSLSLSP
light: DIVMTQSPLSLPVTPGEPASISCRSSQSLVHSNRNTYLHWYQQKPGQAPRLLIYKVSNRFSGVPDRFSGSGSGTDFTLKISRVEAEDVGVYYCGQGTQVPYTFGQGTKLEIKRTVAAPSVFIFPPSDEQLKSGTASVVCLLNNFYPREAKVQWKVDNALQSGNSQESVTEQDSKDSTYSLSSTLTLSKADYEKHKVYACEVTHQGLSSPVTKSFNRGEC
notes: one-arm antibody

T1 sequence (P07766 23-126): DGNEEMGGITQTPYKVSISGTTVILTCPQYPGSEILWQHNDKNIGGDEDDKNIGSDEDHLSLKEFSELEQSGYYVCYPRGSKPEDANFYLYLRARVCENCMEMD

The assay addresses T1, CD3 epsilon homodimer protein (UniProt P07766 23-126).
T1 construct: also called CD3 (CD3 epsilon)
In words: SPR Biacore T200, antibody over immobilised CD3e homodimer.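 Further: CD3 epsilon homodimer amine-coupled on a CM4 chip, run at 25 °C in HBS-EP+, Z = bound amount of each single-residue H chain variant over that of the parent antibody.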 Background: SPR reads the build-up and loss of mass on a sensor chip optically.
Consider B1, for which the “ratio of amounts bound (Z=Y/X vs CE115HA000)” value (“ratio of amounts bound” for short) came to 0.92.

Take B2: the “ratio of amounts bound” value was 1.05. In the case of B3, the “ratio of amounts bound” value stood at 1.19. For the molecule B4, the “ratio of amounts bound” value turned out to be 0.92.

Source of the values: patent US20240270846A1 (published 2024).
